According to publication PMC11017283 (Journal of Lipid Research, 2024):

Molecular target: T1, mouse LPL (p.R324A) (mouse, UniProt P11152 28-474, p.R324A)
T1 sequence (looked up): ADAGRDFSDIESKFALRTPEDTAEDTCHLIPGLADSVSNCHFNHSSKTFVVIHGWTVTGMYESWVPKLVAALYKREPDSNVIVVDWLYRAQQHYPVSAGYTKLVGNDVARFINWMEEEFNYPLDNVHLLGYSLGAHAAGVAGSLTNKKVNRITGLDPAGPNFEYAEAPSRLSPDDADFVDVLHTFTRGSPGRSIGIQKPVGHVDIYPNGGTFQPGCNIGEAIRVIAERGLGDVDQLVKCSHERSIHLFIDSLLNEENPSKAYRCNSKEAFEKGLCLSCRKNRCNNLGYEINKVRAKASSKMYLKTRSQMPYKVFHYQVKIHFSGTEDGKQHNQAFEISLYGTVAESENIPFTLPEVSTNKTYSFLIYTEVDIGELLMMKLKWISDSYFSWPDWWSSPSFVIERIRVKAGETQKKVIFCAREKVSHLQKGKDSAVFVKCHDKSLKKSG
Assay: native gel or EMSA

binding result: binds
B1: recombinant human GPIHBP1, soluble (residues 1-131) (domain or fragment, UniProt Q8IV16 21-151, looked up)
chain: QTQQEEEEEDEDHGPDDYDEEDEDEVEEEETNRLPGGRSRVLLRCYTCKSLPRDERCNLTQNCSHGQTCTTLIAHGNTESGLLTTHSTWCTDSCQPITKTVEGTQVTMTCCQSSLCNVPPWQSSRVQDPTG
